In paper PMC4347645:

Target: desmoplakin (DP), endogenous (human (endogenous in HEK 293 and SCC9)) (UniProt P15924)
Assay: proximity ligation

Chain of desmoplakin (DP), endogenous (human (endogenous in HEK 293 and SCC9)) (P15924 whole entry): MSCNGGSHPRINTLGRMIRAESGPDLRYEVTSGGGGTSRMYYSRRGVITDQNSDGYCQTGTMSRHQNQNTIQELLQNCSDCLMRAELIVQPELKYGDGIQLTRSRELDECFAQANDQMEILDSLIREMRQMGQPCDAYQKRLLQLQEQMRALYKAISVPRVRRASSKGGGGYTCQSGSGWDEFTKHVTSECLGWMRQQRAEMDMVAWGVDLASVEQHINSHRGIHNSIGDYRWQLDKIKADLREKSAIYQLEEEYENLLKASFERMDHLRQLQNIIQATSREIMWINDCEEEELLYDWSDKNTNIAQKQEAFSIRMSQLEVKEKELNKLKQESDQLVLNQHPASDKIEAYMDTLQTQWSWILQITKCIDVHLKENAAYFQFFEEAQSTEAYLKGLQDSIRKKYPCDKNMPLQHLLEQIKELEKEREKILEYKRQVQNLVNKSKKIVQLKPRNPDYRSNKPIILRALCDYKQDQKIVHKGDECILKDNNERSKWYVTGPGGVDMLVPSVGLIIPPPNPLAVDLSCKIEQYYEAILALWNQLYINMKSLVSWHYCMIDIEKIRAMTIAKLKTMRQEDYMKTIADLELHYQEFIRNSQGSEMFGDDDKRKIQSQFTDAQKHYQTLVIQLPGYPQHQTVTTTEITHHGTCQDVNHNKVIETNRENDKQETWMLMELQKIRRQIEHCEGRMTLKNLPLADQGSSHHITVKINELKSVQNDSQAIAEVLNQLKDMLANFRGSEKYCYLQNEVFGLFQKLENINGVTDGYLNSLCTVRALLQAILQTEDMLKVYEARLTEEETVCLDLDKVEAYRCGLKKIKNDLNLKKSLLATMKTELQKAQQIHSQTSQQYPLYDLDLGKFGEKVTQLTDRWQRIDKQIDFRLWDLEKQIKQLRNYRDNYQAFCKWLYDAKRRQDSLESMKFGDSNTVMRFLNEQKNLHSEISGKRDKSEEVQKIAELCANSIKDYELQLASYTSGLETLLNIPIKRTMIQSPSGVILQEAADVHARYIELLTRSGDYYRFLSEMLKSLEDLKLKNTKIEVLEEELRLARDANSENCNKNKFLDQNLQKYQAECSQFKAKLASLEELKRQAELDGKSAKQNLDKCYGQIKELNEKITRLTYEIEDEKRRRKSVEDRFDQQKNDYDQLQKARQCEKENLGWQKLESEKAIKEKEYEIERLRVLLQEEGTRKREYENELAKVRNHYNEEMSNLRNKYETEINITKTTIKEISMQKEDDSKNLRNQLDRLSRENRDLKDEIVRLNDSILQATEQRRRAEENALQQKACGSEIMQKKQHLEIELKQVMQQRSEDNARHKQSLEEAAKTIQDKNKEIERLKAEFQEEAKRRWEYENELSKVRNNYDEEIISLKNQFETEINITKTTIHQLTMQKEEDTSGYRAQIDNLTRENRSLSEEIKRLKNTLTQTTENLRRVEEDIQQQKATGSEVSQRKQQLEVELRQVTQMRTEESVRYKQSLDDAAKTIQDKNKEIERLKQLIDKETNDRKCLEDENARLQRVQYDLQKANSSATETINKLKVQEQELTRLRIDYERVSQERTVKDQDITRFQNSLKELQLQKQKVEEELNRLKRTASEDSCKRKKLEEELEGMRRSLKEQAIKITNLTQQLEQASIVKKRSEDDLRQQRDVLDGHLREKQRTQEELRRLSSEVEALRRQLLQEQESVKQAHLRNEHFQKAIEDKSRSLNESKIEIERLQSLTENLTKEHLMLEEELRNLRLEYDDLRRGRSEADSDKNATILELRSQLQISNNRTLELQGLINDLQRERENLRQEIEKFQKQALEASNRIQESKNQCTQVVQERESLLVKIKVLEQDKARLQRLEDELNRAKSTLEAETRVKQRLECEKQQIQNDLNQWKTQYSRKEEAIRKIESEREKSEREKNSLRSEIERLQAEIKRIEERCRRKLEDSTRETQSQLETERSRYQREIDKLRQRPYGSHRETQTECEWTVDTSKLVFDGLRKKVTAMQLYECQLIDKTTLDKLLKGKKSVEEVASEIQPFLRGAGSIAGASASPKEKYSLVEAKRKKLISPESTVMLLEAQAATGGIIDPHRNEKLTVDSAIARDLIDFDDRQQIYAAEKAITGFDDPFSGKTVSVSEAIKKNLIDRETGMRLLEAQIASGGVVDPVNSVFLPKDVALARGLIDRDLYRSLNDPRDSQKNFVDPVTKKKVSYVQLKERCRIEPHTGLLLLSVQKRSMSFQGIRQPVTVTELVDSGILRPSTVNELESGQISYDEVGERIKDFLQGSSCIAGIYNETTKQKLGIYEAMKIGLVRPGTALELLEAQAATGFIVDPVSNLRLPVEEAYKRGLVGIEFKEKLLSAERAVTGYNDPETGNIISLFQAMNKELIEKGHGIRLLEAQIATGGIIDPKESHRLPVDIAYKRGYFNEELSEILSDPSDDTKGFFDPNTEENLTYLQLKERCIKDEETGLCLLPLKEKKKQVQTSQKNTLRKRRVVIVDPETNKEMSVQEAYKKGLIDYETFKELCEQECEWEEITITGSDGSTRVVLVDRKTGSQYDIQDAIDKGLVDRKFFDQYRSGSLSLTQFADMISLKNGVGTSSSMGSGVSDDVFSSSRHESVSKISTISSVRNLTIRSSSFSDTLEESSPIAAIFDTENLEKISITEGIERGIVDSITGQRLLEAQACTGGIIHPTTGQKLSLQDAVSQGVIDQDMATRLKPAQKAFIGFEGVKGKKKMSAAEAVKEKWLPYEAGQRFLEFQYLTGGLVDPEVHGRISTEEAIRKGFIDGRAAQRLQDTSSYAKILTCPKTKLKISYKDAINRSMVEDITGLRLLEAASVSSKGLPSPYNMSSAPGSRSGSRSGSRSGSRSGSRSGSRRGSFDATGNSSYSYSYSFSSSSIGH
Chain of GSK3, endogenous in SCC9 cells (P49841 whole entry): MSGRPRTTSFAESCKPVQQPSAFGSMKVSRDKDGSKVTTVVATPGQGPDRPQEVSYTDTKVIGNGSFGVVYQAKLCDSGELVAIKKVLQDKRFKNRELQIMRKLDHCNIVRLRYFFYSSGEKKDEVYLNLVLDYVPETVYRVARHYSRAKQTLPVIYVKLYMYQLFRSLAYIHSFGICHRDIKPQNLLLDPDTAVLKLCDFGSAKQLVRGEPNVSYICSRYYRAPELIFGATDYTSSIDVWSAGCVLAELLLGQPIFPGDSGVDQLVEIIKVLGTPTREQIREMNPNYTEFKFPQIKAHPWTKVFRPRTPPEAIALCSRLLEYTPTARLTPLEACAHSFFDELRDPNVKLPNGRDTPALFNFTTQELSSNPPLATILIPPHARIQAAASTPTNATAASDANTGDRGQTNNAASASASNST

## GSK3, endogenous in SCC9 cells (from UniProt P49841 1-420) (enzyme)
  PLA fluorescent dots, fold over negative control antibody pairings: 20 fold
